The assay has as its target T1, Avidin (Gallus gallus, UniProt P02701).
T1 construct: purchased Sigma-Aldrich A9275
Kind of assay: Reflected light intensity from an antireflective SiO2-coated prism, He-Ne laser and photodiode (Example 2): binding to adsorbed Avidin. As to conditions: 632.8 nm laser; flow 10 microliters/minute; phosphate buffer pH 7.4 + 150 millimolar NaCl; BSA 0.4 micromolar, BSA-biotin 0.5 micromolar. From the text:
A layer of silicon oxide (SiO2) was deposed by sputtering on one side of a glass prism, as described in Example 1. The prism is placed in a flow cell so that the coated surface is in contact with the aqueous solution. A light beam from a 5 milliwatts He—Ne laser is sent to the interface between the aqueous solution and the prism and the reflected light is detected by a photodiode that converts the light intensity in an electrical signal. Through the cell is promoted a flow of 10 microliters/minute of an aqueous solution containing sodium phosphate buffer pH 7.4+150 millimolar NaCl (hereafter called “phosphate buffer”) in the following order:
b) protein Avidin (marketed by Sigma-Aldrich, prod. No. A9275) at a concentration of 3 micromolar;
d) protein Bovine Serum Albumin, BSA (marketed by Sigma-Aldrich, prod. No. A6003) at a concentration of 0.4 micromolar;
f) protein BSA conjugated to biotin (marketed by Sigma-Aldrich, prod. No. A8549) at a concentration of 0.5 micromolar;
In FIG. 5 the measured reflected intensity is reported as a function of time. The value of the reflected light intensity measured before the step a) corresponds to a reflectivity of 3.2·10^−6. […] Unlike in Example 1, in this case the adhesion molecules on the surface causes an increase in the intensity of reflected light. […]

The values that follow come from patent US8932880B2, “Method for the direct measure of molecular interactions by detection of light reflected from multilayered functionalized dielectrics” (ProXentia s.r.l., priority 2009, dated 2015).

T1 sequence (P02701 25-152): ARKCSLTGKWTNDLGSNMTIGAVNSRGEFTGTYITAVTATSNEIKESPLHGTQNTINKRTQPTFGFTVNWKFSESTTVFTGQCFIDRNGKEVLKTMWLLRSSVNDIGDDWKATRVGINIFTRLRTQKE

For Bovine Serum Albumin [BSA protein], the “variation of reflected intensity on flowing the solution over adsorbed Avidin” value is “no further variation is observed”.
